Measured values reported in publication PMC11054746, “GRPR-Antagonists Carrying DOTAGA-Chelator via Positively Charged Linkers: Perspectives for Prostate Cancer Theranostics” (Pharmaceutics, 2024).
Read-outs that look alike come from different tables or passages of the source. Each block holds one compound with its values, some of them ahead of it.

Assays:
PC-3 xenografts = experiment: in vivo; set-up: species or system BALB/C nu/nu mice; settings: mouse; for Kidneys uptake: BALB/C nu/nu
Procedure: (§1) All in vivo studies were performed following European guidelines on laboratory animal protection. The in vivo stability experiments were carried out in healthy male Swiss albino mice; the study protocol was approved by the Department of Agriculture and Veterinary Service of the Prefecture of Athens (protocol number #440448, 01-06-2021). The biodistribution, in vivo targeting specificity assay, and SPECT/CT imaging experiments were carried out on BALB/C nu/nu mice. The Ethics Committee for Animal Research in Uppsala (Sweden) approved the latter in vivo animal studies (permit number 00473/21). The BALB/C nu/nu mice were implanted with GRPR-positive prostate cancer xenografts by subcutaneous injection on the right hind leg of PC-3 cells suspended in PBS (7 × 10^6 cells/mouse) four weeks before the biodistribution studies.
(§2) The mice were iv injected with 40 pmol peptide (30 kBq in a total volume of 100 μL 1% bovine serum albumin (BSA) in PBS). […] At the indicated time points, mice were euthanized under anesthesia. The organs of interest were collected, weighed, and the sample radioactivity content was measured on the gamma counter. The percentage of injected activity per gram (%IA/g) of collected tumors, organs and tissues, the %IA for the remaining gastrointestinal tract and carcass, as well as the tumor-to-organ ratios (T/O) were calculated.

in vivo = experiment: in vivo; set-up: species or system BALB/C nu/nu mice; settings: BALB/C nu/nu, mouse, iv, total radioactivity; for tissue to tissue ratio at 4 h: Tumor-to-organ ratio
Procedure: as §1, §2

PC-3 cells = experiment: Cellular internalization; assay type: cell-based, human; settings: 1 nM, acid wash, mean of 3 dishes ± sd, normalized to maximum cell association at 24 h
Procedure: For the cellular internalization assay, PC-3 cells (1 × 10^6 cells/dish) were used. The cells were incubated with 1 mL (1 nM) of solution containing the radiolabeled peptide under evaluation. At the 4 h and 24 h time points, the cells were treated with an acid wash (0.2 M glycine buffer with 0.15 M NaCl and 4 M urea, pH 2) for 5 min on ice to remove the membrane-bound peptide. After collection of acid fractions, the cells were treated with 1 M NaOH for at least 30 min and the cell debris were scraped and collected. The activity content in samples was measured using the gamma counter.

[1] = Radiochemical stability: indium release in PBS or with EDTA excess, by iTLC; assay type: physicochemical; settings: room temperature, 0.2 M citric acid, mean ± sd, n = 3
Procedure: The radiochemical yield was analyzed with instant thin layer chromatography (iTLC) strips (Agilent Technologies, Santa Clara, CA, USA), using 0.2 M citric acid buffer as a mobile phase (Rf = 0 for the radiolabeled peptide and Rf = 1 for free indium). The iTLC results were analyzed using Cyclone® Plus Phosphorimager (PerkinElmer, Hägersten, Sweden). The radiochemical stability was determined by incubating the radiolabeled compounds with phosphate-buffered saline (PBS) or a 1000-fold molar excess of ethylenediaminetetraacetic acid (EDTA) for 1 h at room temperature. The percentage of indium release was assessed by iTLC using 0.2 M citric acid as mobile phase. Stability tests were performed in triplicate for each compound.

human GRPR = biological target: T1, human GRPR (Homo sapiens, UniProt P30550); experiment: Affinity measurements in real time (LigandTracer) on PC-3 cells; assay type: binding; settings: room temperature, 1:2 fitting interaction model
T1 construct: host or cells: PC-3 human prostate adenocarcinoma cells
Procedure: The association curves were recorded at 1 nM and 3 nM of the radiolabeled peptides for 300 min. After reaching the plateau, the medium containing the radioligand was replaced with fresh medium and the dissociation curve was measured for about 16 h. The obtained sensorgrams were analyzed using TracerDrawer (Ridgeview Instruments AB, Uppsala, Sweden) and the dissociation constants (KD) were calculated.

[2] = 40 pmol, Carcass (whole body) uptake
[3] = 40 pmol, GI (gastrointestinal tract, GIT) uptake

T1 sequence (P30550 whole entry): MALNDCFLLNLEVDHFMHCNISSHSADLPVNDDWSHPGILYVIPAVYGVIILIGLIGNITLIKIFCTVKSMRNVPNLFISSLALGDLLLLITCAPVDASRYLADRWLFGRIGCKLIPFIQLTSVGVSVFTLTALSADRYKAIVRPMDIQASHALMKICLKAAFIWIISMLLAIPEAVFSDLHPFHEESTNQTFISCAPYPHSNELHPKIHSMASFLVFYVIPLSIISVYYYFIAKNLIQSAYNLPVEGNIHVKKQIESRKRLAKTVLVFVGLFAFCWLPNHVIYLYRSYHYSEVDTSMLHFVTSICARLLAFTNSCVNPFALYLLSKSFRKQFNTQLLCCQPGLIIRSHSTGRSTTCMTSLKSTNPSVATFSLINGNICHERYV

Compound: CC(C)C[C@H](NC(=O)C[C@H](O)[C@H](CC(C)C)NC(=O)[C@H](Cc1c[nH]cn1)NC(=O)CN(C)C(=O)[C@@H](NC(=O)[C@H](C)NC(=O)[C@H](Cc1c[nH]c2ccccc12)NC(=O)[C@H](CCC(N)=O)NC(=O)[C@@H](Cc1ccccc1)NC(=O)COCCOCCNC(=O)CCC(C(=O)O)N1CCN(CC(=O)O)CCN(CC(=O)O)CCN(CC(=O)O)CC1)C(C)C)C(N)=O (stereo partly drawn) [[^111In]In-AU-RM26-M1, [^111In]In-DOTAGA-PEG2-[Sar^11]RM26, metal not drawn, reference compound]
Kidneys uptake (PC-3 xenografts; iv, 40 pmol, 4 h): ~ 6.5 %IA/g
Tumor uptake (PC-3 xenografts; iv, 40 pmol, 4 h): 6 ± 2 %IA/g
tissue uptake at 4 h (in vivo; 40 pmol, Blood uptake): 0.04 ± 0.01 %ID/g
tissue uptake at 4 h (in vivo; 40 pmol, Bone uptake): 0.05 ± 0.01 %ID/g
tissue uptake dose at 4 h (in vivo; [2]): 1.3 ± 0.5 %ID
tissue uptake dose at 4 h (in vivo; [3]): 0.9 ± 0.1 %ID
tissue uptake at 4 h (in vivo; 40 pmol, Kidneys uptake): 6.4 ± 0.6 %ID/g
tissue uptake at 4 h (in vivo; 40 pmol, Liver uptake): 0.2 ± 0.1 %ID/g
tissue uptake at 4 h (in vivo; 40 pmol, Lungs uptake): 0.08 ± 0.05 %ID/g
tissue uptake at 4 h (in vivo; 40 pmol, Muscle uptake): 0.04 ± 0.02 %ID/g
tissue uptake at 4 h (in vivo; 40 pmol, Pancreas uptake): 0.2 ± 0.1 %ID/g
tissue uptake at 4 h (in vivo; 40 pmol, Small Int uptake): 0.1 ± 0.04 %ID/g
tissue uptake at 4 h (in vivo; 40 pmol, Spleen uptake): 0.08 ± 0.02 %ID/g
tissue to tissue ratio at 4 h (in vivo; 40 pmol, Blood): 133 ± 26
tissue to tissue ratio at 4 h (in vivo; 40 pmol, Bone): 117 ± 16
tissue to tissue ratio at 4 h (in vivo; 40 pmol, Kidneys): 0.9 ± 0.2
tissue to tissue ratio at 4 h (in vivo; 40 pmol, Liver): 39 ± 5
tissue to tissue ratio at 4 h (in vivo; 40 pmol, Lungs): 81 ± 25
tissue to tissue ratio at 4 h (in vivo; 40 pmol, Muscle): 234 ± 154
tissue to tissue ratio at 4 h (in vivo; 40 pmol, Pancreas): 27 ± 4
tissue to tissue ratio at 4 h (in vivo; 40 pmol, Small Int): 57 ± 7
tissue to tissue ratio at 4 h (in vivo; 40 pmol, Spleen): 72 ± 9.5

Compound: CC(C)C[C@H](NC(=O)C[C@H](O)[C@H](CC(C)C)NC(=O)[C@H](Cc1c[nH]cn1)NC(=O)CN(C)C(=O)[C@@H](NC(=O)[C@H](C)NC(=O)[C@H](Cc1c[nH]c2ccccc12)NC(=O)[C@H](CCC(N)=O)NC(=O)[C@@H](Cc1ccccc1)NC(=O)CN1CCC(NC(=O)COCCOCCNC(=O)CCC(C(=O)O)N2CCN(CC(=O)O)CCN(CC(=O)O)CCN(CC(=O)O)CC2)CC1)C(C)C)C(N)=O (stereo partly drawn) [[^111In]In-AU-RM26-M2, metal not drawn]
kidney uptake at 24 h pi retained as % of the 4 h renal value (PC-3 xenografts): > 80%
pancreas uptake at 24 h pi as % of the initial 4 h uptake (PC-3 xenografts): 40%
tumor uptake at 24 h pi as % of the 4 h value (PC-3 xenografts): 70%
tissue uptake at 4 h (in vivo; 40 pmol, Blood uptake): 0.003 ± 0.002 %ID/g
tissue uptake at 24 h (in vivo; 40 pmol, Blood uptake): 0.01 ± 0.002 %ID/g
tissue uptake at 4 h (in vivo; 40 pmol, Bone uptake): 0.05 ± 0.03 %ID/g
tissue uptake at 24 h (in vivo; 40 pmol, Bone uptake): 0.04 ± 0.02 %ID/g
tissue uptake dose at 4 h (in vivo; [2]): 0.8 ± 0.1 %ID
tissue uptake dose at 24 h (in vivo; 40 pmol, Carcass uptake): 0.5 ± 0.2 %ID
tissue uptake dose at 4 h (in vivo; [3]): 0.8 ± 0.5 %ID
tissue uptake dose at 24 h (in vivo; [3]): 0.13 ± 0.03 %ID
tissue uptake at 4 h (in vivo; 40 pmol, Kidneys uptake): 5 ± 1 %ID/g
tissue uptake at 24 h (in vivo; 40 pmol, Kidneys uptake): 4.1 ± 0.4 %ID/g
tissue uptake at 4 h (in vivo; 40 pmol, Liver uptake): 0.12 ± 0.01 %ID/g
tissue uptake at 24 h (in vivo; 40 pmol, Liver uptake): 0.11 ± 0.01 %ID/g
tissue uptake at 4 h (in vivo; 40 pmol, Lungs uptake): 0.05 ± 0.01 %ID/g
tissue uptake at 24 h (in vivo; 40 pmol, Lungs uptake): 0.05 ± 0.02 %ID/g
tissue uptake at 4 h (in vivo; 40 pmol, Muscle uptake): 0.02 ± 0.01 %ID/g
tissue uptake at 24 h (in vivo; 40 pmol, Muscle uptake): 0.02 ± 0.01 %ID/g
tissue uptake at 4 h (in vivo; 40 pmol, Pancreas uptake): 0.37 ± 0.08 %ID/g
tissue uptake at 24 h (in vivo; 40 pmol, Pancreas uptake): 0.15 ± 0.03 %ID/g
tissue uptake at 4 h (in vivo; 40 pmol, Small Int uptake): 0.1 ± 0.06 %ID/g
tissue uptake at 24 h (in vivo; 40 pmol, Small Int uptake): 0.06 ± 0.03 %ID/g
tissue uptake at 4 h (in vivo; 40 pmol, Spleen uptake): 0.07 ± 0.02 %ID/g
tissue uptake at 24 h (in vivo; 40 pmol, Spleen uptake): 0.07 ± 0.01 %ID/g
tissue uptake at 4 h (in vivo; 40 pmol, Tumor uptake): 7 ± 2 %ID/g
tissue uptake at 24 h (in vivo; 40 pmol, Tumor uptake): 4.9 ± 0.7 %ID/g
tissue uptake dose at 4 h (in vivo; Carcass uptake, Block): 1 ± 0.5 %ID
tissue uptake dose at 4 h (in vivo; GI (gastrointestinal tract, GIT) uptake, Block): 0.46 ± 0.03 %ID
internalized fraction at 24 h (PC-3 cells): 23 ± 2%
released [111In]In3+, ×1000 EDTA (1 h) ([1]; 1000-fold molar excess of EDTA): 5.7 ± 0.7% (3)
released [111In]In3+, PBS ([1]; incubation in PBS, 1 h): 5.7 ± 0.2% (3)

Kd (human GRPR; read-out: KD1): 0.245 nM
Kd (human GRPR; read-out: KD2): 1.4 nM
Compound: CC(C)C[C@H](NC(=O)C[C@H](O)[C@H](CC(C)C)NC(=O)[C@H](Cc1c[nH]cn1)NC(=O)CN(C)C(=O)[C@@H](NC(=O)[C@H](C)NC(=O)[C@H](Cc1c[nH]c2ccccc12)NC(=O)[C@H](CCC(N)=O)NC(=O)[C@@H](Cc1ccccc1)NC(=O)[C@H](CCCNC(=N)N)NC(=O)COCCOCCNC(=O)CCC(C(=O)O)N1CCN(CC(=O)O)CCN(CC(=O)O)CCN(CC(=O)O)CC1)C(C)C)C(N)=O (stereo partly drawn) [[^111In]In-AU-RM26-M3, metal not drawn]
Kidneys uptake (PC-3 xenografts; iv, 40 pmol, 4 h): ~ 3.5 %IA/g
tissue uptake at 4 h (in vivo; 40 pmol, Blood uptake): 0.024 ± 0.002 %ID/g
tissue uptake at 4 h (in vivo; 40 pmol, Bone uptake): 0.06 ± 0.01 %ID/g
tissue uptake dose at 4 h (in vivo; [2]): 1.7 ± 0.3 %ID
tissue uptake dose at 4 h (in vivo; [3]): 1.3 ± 0.9 %ID
tissue uptake at 4 h (in vivo; 40 pmol, Kidneys uptake): 3.4 ± 0.2 %ID/g
tissue uptake at 4 h (in vivo; 40 pmol, Liver uptake): 0.17 ± 0.01 %ID/g
tissue uptake at 4 h (in vivo; 40 pmol, Lungs uptake): 0.12 ± 0.01 %ID/g
tissue uptake at 4 h (in vivo; 40 pmol, Muscle uptake): 0.03 ± 0.01 %ID/g
tissue uptake at 4 h (in vivo; 40 pmol, Pancreas uptake): 0.06 ± 0.01 %ID/g
tissue uptake at 4 h (in vivo; 40 pmol, Small Int uptake): 0.08 ± 0.03 %ID/g
tissue uptake at 4 h (in vivo; 40 pmol, Spleen uptake): 0.08 ± 0.01 %ID/g
tissue uptake at 4 h (in vivo; 40 pmol, Tumor uptake): 2.5 ± 0.6 %ID/g
tissue to tissue ratio at 4 h (in vivo; 40 pmol, Blood): 104
tissue to tissue ratio at 4 h (in vivo; 40 pmol, Bone): 39 ± 8
tissue to tissue ratio at 4 h (in vivo; 40 pmol, Kidneys): 0.7 ± 0.2
tissue to tissue ratio at 4 h (in vivo; 40 pmol, Liver): 15 ± 4.5
tissue to tissue ratio at 4 h (in vivo; 40 pmol, Lungs): 33 ± 22
tissue to tissue ratio at 4 h (in vivo; 40 pmol, Muscle): 75 ± 18
tissue to tissue ratio at 4 h (in vivo; 40 pmol, Pancreas): 45 ± 15
tissue to tissue ratio at 4 h (in vivo; 40 pmol, Small Int): 35 ± 15
tissue to tissue ratio at 4 h (in vivo; 40 pmol, Spleen): 31 ± 9
